These results are taken from publication PMC3669356.

In test [1] the target is Schistosoma japonicum GST (GST-Sj), purified recombinant (Schistosoma japonicum) [GST: P08515]. Put plainly: SPR. A general note: Surface plasmon resonance follows binding to a sensor surface in real time, without labels.
For test [2], the target named is rat GSTM1, purified recombinant (rat). As to the kind of experiment: SPR; BIAcore; GSTM1 or GSTP1 immobilised by amine coupling on CM5 chips; AMPK 221WT injected (10 nM, or a concentration series) at 30 µl/min; 10 mM HEPES pH 7.4, 100 mM NaCl, 50 μM EDTA, 0.005% Surfactant P20; Langmuir 1:1 fit.

For the substance “AMPK α2T172Dβ2γ1 mutant (221TD) (from UniProt Q09137 1-552; Q9QZH4 1-271; P80385 1-330) (complex)”, the equilibrium response in test [1] was found to be 121 RU.

Regarding “AMPK α2β2γ1 (221WT) (from UniProt Q09137 1-552; Q9QZH4 1-271; P80385 1-330) (complex)”, in test [2], the Kd amounted to 5 nM, the koff worked out at 0.0016 s⁻¹ and the kon is 310000 M⁻¹ s⁻¹. In test [1], the equilibrium response was found to be 203 RU.

As usually defined, the Kd is the equilibrium constant for the complex coming apart. A word on the koff: it is a measure of how fast the partners let go of each other. Usually kon stands for the rate constant with which the complex forms.
